Reference: the supplement of paper PMC10126150
± gives the standard deviation of the averaged measurements.

System: ATP
Test: switch fluorescence ratio, 500 uM ATP over buffer (Cy3 cluster intensity, sum of 5 cycles each) (fold (ratio)); higher = stronger signal-on switching upon ATP binding; sequences stand for … in TCGTCGGCAGCGTCAGATGTGTATAAGAGACAGTTTTTTTTTTTTTTTTTTTTTTTTT…TC
Details: aptamer strand: ATP DNA aptamer (quencher-CACCTGGGGGAGTATTGCGGAGGAAGG + anchor), 100 nM annealed; ATP concentration: 500 uM
In short: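 Cy3-labelled switching-strand clusters on a modified Illumina MiSeq flow-cell were annealed to 100 nM quencher-labelled ATP aptamer and imaged first in selection buffer, then after 15 min with 500 uM ATP at 22 °C. NaOH stripping and re-annealing separated each of five buffer/ATP cycles, and clusters outside 100-1000 RFU were excluded. The fluorescence ratio sums target-cycle Cy3 intensity over buffer-cycle Cy3 intensity per cluster and averages it per switch-domain sequence.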
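Note: ATP exposure 15 min at 22 °C before imaging.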

Sequence | switch fluorescence ratio
TGGCCTGCTG | 0.9919 ± 0.0026
TTCATATTTT | 0.996 ± 0.015
CTTGGGGGTC | 0.989 ± 0.014
CGTGGAGTCG | 0.989 ± 0.1
ATGCCGAAGG | 0.985 ± 0.054
GTTGGGAGTC | 1.01 ± 0.012
TTGAATAGTT | 0.998 ± 0.017
CAGCGTCGT | 1.02 ± 0.025
TTACTAGGCA | 1.01 ± 0.012
TTTTGAATAA | 0.9685 ± 0.0049
CAGGGGTGGT | 1.01 ± 0.039
TGTTTCATTC | 0.978 ± 0.012
CGGGCTTTTT | 1.016 ± 0.0065
ATAAGCACTT | 1.22 ± 0.027
GAACGTTGGG | 0.993 ± 0.033
ATCTTAGTAA | 0.9998 ± 0.0099
TTTTTAGTGT | 1.01 ± 0.035
GGGTATGAAG | 1.04 ± 0.049
AAGATGATGG | 1.01 ± 0.023
ACTAGTATTA | 1 ± 0.036
GGGTTCCTAG | 1.01 ± 0.041
TCGATAGTTG | 0.961 ± 0.054
TTAAGCCTGG | 0.962 ± 0.022

Sequence | switch fluorescence ratio
ATGGGGGTTT | 0.984 ± 0.042
GGGAGAAGGG | 0.95 ± 0.023
ATTAGTGGCA | 0.982 ± 0.013
TTTTATGGCG | 1.04 ± 0.0024
CGTGTTTTCT | 0.99 ± 0.031
GACTGTTATG | 0.989 ± 0.024
TTGTTCAAGG | 0.981 ± 0.015
GCGTTCCTTG | 1.071 ± 0.0017
ACGGGGGACT | 1.02 ± 0.049
ATTCGCGGAA | 1.02 ± 0.029
GAGGGGGGAG | 0.986 ± 0.027
CGGCCCAGAA | 1 ± 0.015
GTGGGGCATA | 0.982 ± 0.017
GAATTCTCCG | 1.18 ± 0.012
ATTACGGGGG | 1.01 ± 0.088
AGTCTTCTGG | 1.01 ± 0.026
AGAGGGCGTC | 1.04 ± 0.046
AAGCGGGACG | 0.999 ± 0.054
GGGAATCGTG | 0.983 ± 0.012
ACGTGTGTTT | 1.01 ± 0.017
TGTGAACTTT | 1.01 ± 0.012
TTTTTCGCTG | 1.03 ± 0.022
TTTGTGTCCG | 0.946 ± 0.088

Sequence | switch fluorescence ratio
GGCTTCTGCT | 0.959 ± 0.022
TTTTGGTTAC | 1.04 ± 0.055
CTCGGAATTT | 1.04 ± 0.037
ATTGTTCTGA | 1.01 ± 0.032
TATTCTTGGG | 1 ± 0.028
CGAAGGGGTA | 0.987 ± 0.018
GCTCGCCGAT | 1.01 ± 0.016
ATGGAGAGAA | 1.01 ± 0.039
TTGGGTAATT | 0.998 ± 0.022
GTGTAATTTG | 0.994 ± 0.036
TGCGTCTATT | 1.05 ± 0.078
TAGTCGCCGA | 0.986 ± 0.017
ATCATTTGGG | 0.997 ± 0.039
TCGATACATG | 0.993 ± 0.034
CGGTTTTTGT | 0.9992 ± 0.008
TTTCGTGCTT | 1.02 ± 0.032
AGATTTACTT | 0.985 ± 0.014
ATATATACTG | 1.05 ± 0.071
GAGGGGGTTT | 0.99 ± 0.018
ATTTGGAAGT | 1.02 ± 0.018
TGTGGGGGGG | 1.01 ± 0.045
ATTTATGTTA | 0.985 ± 0.012
GGTTGATGAT | 0.975 ± 0.033

Sequence | switch fluorescence ratio
AGCGAAATCA | 1 ± 0.078
GCAGCAAGCG | 1.64 ± 0.028
TTGCTGGTCA | 0.9897 ± 0.0042
TCCCGAAGAT | 1.03 ± 0.023
CTTTTTGTTT | 1.01 ± 0.041
GACGTGATCC | 2.5 ± 0.8
TGGCGGGGTT | 0.986 ± 0.022
CCTGTTGGGG | 0.991 ± 0.039
GATTTTGGCT | 0.9969 ± 0.0019
TAGAGGGT | 0.9989 ± 0.0016
GAGGGAATGG | 1.07 ± 0.061
GAAGGGTATT | 1.01 ± 0.026
AAGCAGGGTG | 1 ± 0.04
CAAACGTGGG | 0.98611 ± 0.00012
TTGGGTTTTC | 1.03 ± 0.065
GGGGCCAGAA | 1.012 ± 0.0029
TACTCCGGTT | 2.02 ± 0.19
GGCAGGGGGG | 1.04 ± 0.056
GCATTGTACG | 0.991 ± 0.03
TGTTTATCAT | 0.978 ± 0.017
GTGTGAGTGT | 0.973 ± 0.016
ATTTGAATA | 0.984 ± 0.022
GGGTTTAATC | 1.08 ± 0.077

Sequence | switch fluorescence ratio
TTAGCGAGGA | 1.03 ± 0.046
TTTTGGAAAA | 1.02 ± 0.017
TTTTCCAGGG | 1.22 ± 0.18
ATTCATGGGT | 0.998 ± 0.024
CGGCGGGTCT | 0.98 ± 0.052
TTGATTGTTG | 0.982 ± 0.013
CAGTGAATGT | 0.976 ± 0.039
TTTTGATTTT | 1.02 ± 0.041
GAGAGCGGGG | 0.968 ± 0.033
GGGATGGGTT | 0.989 ± 0.025
ATATATAAGT | 0.972 ± 0.011
TTTGCATGAT | 0.982 ± 0.017
AAATATACGA | 1.16 ± 0.15
CCAAGCACTT | 1.45 ± 0.14
GAAAGGGGGC | 0.963 ± 0.041
TTGGCCGTAC | 1.03 ± 0.029
CCGAGGGGGG | 1.25 ± 0.35
AGCTGGTCGT | 0.97265 ± 0.00075
AGGCATATAG | 1.09 ± 0.077
TGGGTTATGG | 0.972 ± 0.016
AAAAGGGATT | 0.98 ± 0.012
GACGGAGGCA | 1.03 ± 0.031
GGAGGTGGTT | 0.981 ± 0.018

Sequence | switch fluorescence ratio
ATATCTTAGT | 1.017 ± 0.00089
AGCGTATGTG | 1.02 ± 0.062
ATGGGGGGCG | 1.02 ± 0.053
CGCCAAATTT | 1.07 ± 0.1
GGTGTTGATC | 1.03 ± 0.025
TTTGTCCCG | 1.01 ± 0.044
TGAAATGGTT | 1.01 ± 0.017
TAGGAAAGGC | 0.982 ± 0.027
TGGGGGTGTG | 1.04 ± 0.082
AGGGTATTGT | 1.02 ± 0.075
TACTTGAATT | 1.02 ± 0.018
AGATGTGGTT | 0.9922 ± 0.0041
TGGGTTTGCT | 1.001 ± 0.0063
CACTATAGCG | 1.042 ± 0.0098
TCAAGTTACA | 1.078 ± 0.0041
GTAAACGGTG | 0.979 ± 0.032
CGAATATCAT | 0.9747 ± 0.0047
GGGGGGATAC | 1.7 ± 0.61
GAAAAAATGG | 1.15 ± 0.26
ATGCAATGCT | 3.19 ± 0.18
AGGTGTTAAA | 0.9941 ± 0.0033
GGGATCTTGA | 1.07 ± 0.051
GTTGCTAGGT | 0.9984 ± 0.0044

Sequence | switch fluorescence ratio
TCCTGATGTT | 0.982 ± 0.046
CCGGTGCGGC | 1.48 ± 0.23
CTTCGGCCTT | 0.976 ± 0.02
GGGCCCATA | 0.982 ± 0.028
TGAAATAATT | 0.9791 ± 0.0017
TTCGTACGTC | 1.01 ± 0.029
TATTTCCCGT | 1.06 ± 0.065
TTTAAAGTTG | 1.05 ± 0.04
GTGAAACGGG | 0.998 ± 0.07
GGCGGGAAAG | 0.983 ± 0.037
ATCATCGCTA | 1.094 ± 0.0084
ACAAGGGGCT | 1.02 ± 0.021
TTGGGTCAGA | 0.981 ± 0.018
GTTGTAGTCC | 1.02 ± 0.022
TTTAGACGGG | 0.965 ± 0.028
TGGGCGTTGC | 1.01 ± 0.018
AGTTTCTTTT | 0.994 ± 0.0026
GGCTTAATGA | 0.971 ± 0.029
GAGTCACGGA | 1.01 ± 0.046
